The record followed here is paper PMC5906480, “Tau Antibody Structure Reveals a Molecular Switch Defining a Pathological Conformation of the Tau Protein” (Scientific Reports, 2018).

In assay [1] the test system is pS396/pS404 peptide. In words: ELISA, pS396/pS404 peptide. The assay is classed as binding. To be noted: plate coated with peptide 2 μg/mL; C5.2 IgG 8 μg/mL–0.05 ng/mL, 1 h room temperature; 405 nm. How it is done:
(§1) Immulon 4 HBX (extra high-binding) 96-well microtiter plates (Thermo Scientific) were coated with the same peptide used for crystallization diluted to 2 μg/mL in phosphate-buffered saline (PBS) and left overnight at 4 °C (Table 1). Plates were then washed three times in PBS-T (PBS containing 0.05% Tween-20) and blocked in 5% non-fat milk and 3% bovine serum albumin in PBS for 2 hours at room temperature. Plates were subsequently washed 3 times in PBS-T before C5.2 was serially diluted (8 μg/mL–0.05 ng/mL) in PBS and incubated for 1 hour at room temperature. Then, alkaline phosphatase-conjugated goat anti-mouse IgG (Southern Biotech) was diluted 1:2000 in PBS and incubated for 30 minutes at room temperature. Finally, bound IgG was analyzed by addition of p-nitrophenyl phosphate substrate (Thermo Scientific) and measurement at 405 nm on a VersaMax Microplate Reader.
(§2) In order to evaluate the ability of C5.2 to exclusively target the phosphorylated epitope, we performed an enzyme-linked immunosorbent assay (ELISA). The peptides used in the assay are the same peptides used for crystallization and diluted to a concentration of 2 μg/mL (Table 1). Binding curves were generated from ELISA data by maintaining plate-bound peptide concentrations and serially diluting C5.2 IgG (Fig. 1c).
(In general: ELISA stands for enzyme-linked immunosorbent assay.)

Assay [2] concerns non-phosphorylated peptide. Put plainly: ELISA, non-phosphorylated peptide. The conditions noted are these: plate coated with peptide 2 μg/mL; C5.2 IgG 8 μg/mL–0.05 ng/mL, 1 h room temperature; 405 nm. Format: binding. How it is done:
as §1, §2

Entries after “also recorded” stand apart in the source; their conditions may differ.

B1: C5.2: novel mouse monoclonal antibody that targets the pS396 tau epitope region (antibody, V domains shown)
VH: QVQLQQSDAELVKPGASVKISCKASGYTFTDRTIHWVKQRPEQGLEWIGYIYPGDDSTKYNDMFKAKATLTADKSSNTAYMQLNSLTSDDSAVYFCARRGTMDYWGQGTSVTVSS
VL: DVQMIQSPSSLSASLGDIVTMTCQASQDTSINLNWFQQKPGKAPKLLIYGASNLEDGVPSRFSGSRYGTDFTLTISSLEDEDMATYFCLQHTYLPFTFGSGTKLEIK
For the molecule B1, the “Association with peptide (ELISA)” value in assay [1] is recorded as “strong association”. In assay [2], the “Recognition of peptide (ELISA)” value is on record as “lack of recognition; also recorded: does not bind”.
